Measurements from publication PMC9482650, “Quantitative fragmentomics allow affinity mapping of interactomes” (Nature Communications, 2022).

T1: APBA1_2, Q02410
T1 sequence (Q02410 742-832, limits assumed, looked up): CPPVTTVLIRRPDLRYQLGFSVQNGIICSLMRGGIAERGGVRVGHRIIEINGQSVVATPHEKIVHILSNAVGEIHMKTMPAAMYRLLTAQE

T2: APBA2_1, Q99767
T2 sequence (Q99767 563-664, limits assumed, looked up): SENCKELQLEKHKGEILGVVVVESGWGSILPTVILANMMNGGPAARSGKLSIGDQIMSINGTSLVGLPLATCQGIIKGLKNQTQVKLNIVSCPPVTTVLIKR

T3: DFNB31_1, Q9P202
T3 sequence (Q9P202 135-233, limits assumed, looked up): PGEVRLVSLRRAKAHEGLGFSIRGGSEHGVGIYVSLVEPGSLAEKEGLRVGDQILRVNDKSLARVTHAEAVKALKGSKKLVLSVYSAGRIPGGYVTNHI

T4: DFNB31_2, Q9P202
T4 sequence (Q9P202 274-371, limits assumed, looked up): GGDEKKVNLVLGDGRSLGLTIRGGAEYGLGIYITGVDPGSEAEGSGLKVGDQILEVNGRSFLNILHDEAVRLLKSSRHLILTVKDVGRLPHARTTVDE

T5: GRIP1_5, Q9Y3R0
T5 sequence (Q9Y3R0 568-668, limits assumed, looked up): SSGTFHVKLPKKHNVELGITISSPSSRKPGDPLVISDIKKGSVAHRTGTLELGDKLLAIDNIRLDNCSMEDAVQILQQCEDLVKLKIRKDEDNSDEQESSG

T6: HTRA4, P83105
T6 sequence (P83105 378-476, limits assumed, looked up): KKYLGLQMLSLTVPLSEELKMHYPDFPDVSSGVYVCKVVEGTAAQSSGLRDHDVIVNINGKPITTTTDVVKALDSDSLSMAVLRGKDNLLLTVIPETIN

T7: LNX2_3, Q8N448
T7 sequence (Q8N448 463-564, limits assumed, looked up): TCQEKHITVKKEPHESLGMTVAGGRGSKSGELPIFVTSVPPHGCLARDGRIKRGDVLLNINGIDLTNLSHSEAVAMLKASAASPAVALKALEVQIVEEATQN

T8: LRRC7, Q96NW7
T8 sequence (Q96NW7 1440-1537, limits assumed, looked up): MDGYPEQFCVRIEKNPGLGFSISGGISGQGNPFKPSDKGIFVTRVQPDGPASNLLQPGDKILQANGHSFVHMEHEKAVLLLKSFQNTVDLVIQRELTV

T9: NHERF3_1, Q5T2W1
T9 sequence (Q5T2W1 4-100, limits assumed, looked up): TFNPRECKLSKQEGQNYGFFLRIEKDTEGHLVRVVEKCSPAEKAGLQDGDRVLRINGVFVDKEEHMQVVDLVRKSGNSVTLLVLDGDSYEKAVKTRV

T10: PDZD7_3, Q9H5P4
T10 sequence (Q9H5P4 857-944, limits assumed, looked up): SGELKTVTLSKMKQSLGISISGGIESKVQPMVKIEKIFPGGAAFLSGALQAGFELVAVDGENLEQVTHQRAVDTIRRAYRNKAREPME

T11: SIPA1L2, Q9P2F8
T11 sequence (Q9P2F8 945-1036, limits assumed, looked up): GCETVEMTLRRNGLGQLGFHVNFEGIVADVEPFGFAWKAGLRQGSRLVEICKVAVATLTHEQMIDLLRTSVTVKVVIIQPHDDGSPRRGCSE

T12: TIAM2, Q8IVF5
T12 sequence (Q8IVF5 885-986, limits assumed, looked up): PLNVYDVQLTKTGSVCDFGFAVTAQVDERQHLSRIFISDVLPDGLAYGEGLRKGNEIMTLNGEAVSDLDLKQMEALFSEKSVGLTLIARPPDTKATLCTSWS

T13: TJP3_3, O95049
T13 sequence (O95049 375-456, limits assumed, looked up): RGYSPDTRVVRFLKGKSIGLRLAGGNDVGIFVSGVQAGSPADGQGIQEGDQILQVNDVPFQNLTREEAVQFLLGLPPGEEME

B1: SEMA4C, Q9C0C4 (peptide)
chain: PDSNPEESSV
B2: KCNT1, Q5JUK3 (peptide)
chain: NPETRDETQL
B3: GAB3, Q8WWW8 (peptide)
chain: EWTDERQSKV
B4: CLDN9, O95484 (peptide)
chain: ASGLDKRDYV

What was measured:
Experiment in all cases: holdup assay
Set-up in all cases: key: below the threshold = too weak to quantify, mostly under pKd 3.1 to 4
Details in all cases: plain residues with an end cap or a label only (N-terminal biotin on a linker: ado-ado)
APBA1_2, Q02410 = biological target: T1, APBA1_2, Q02410
APBA2_1, Q99767 = biological target: T2, APBA2_1, Q99767
CASK, O14936 = biological target: CASK, O14936
DFNB31_1, Q9P202 = biological target: T3, DFNB31_1, Q9P202
DFNB31_2, Q9P202 = biological target: T4, DFNB31_2, Q9P202
DLG1_1, Q12959 = biological target: DLG1_1, Q12959
DLG1_2, Q12959 = biological target: DLG1_2, Q12959
DLG1_3, Q12959 = biological target: DLG1_3, Q12959
GIPC2, Q8TF65 = biological target: GIPC2, Q8TF65
GRIP1_5, Q9Y3R0 = biological target: T5, GRIP1_5, Q9Y3R0
GRIP2_6, Q9C0E4 = biological target: GRIP2_6, Q9C0E4
HTRA4, P83105 = biological target: T6, HTRA4, P83105
Inadl_3, Q8NI35 = biological target: Inadl_3, Q8NI35
LNX2_3, Q8N448 = biological target: T7, LNX2_3, Q8N448
LRRC7, Q96NW7 = biological target: T8, LRRC7, Q96NW7
MAGI2_6, Q86UL8 = biological target: MAGI2_6, Q86UL8
MAST1, Q9Y2H9 = biological target: MAST1, Q9Y2H9
NHERF2_2, Q15599 = biological target: NHERF2_2, Q15599
NHERF3_1, Q5T2W1 = biological target: T9, NHERF3_1, Q5T2W1
NHERF4_2, Q86UT5 = biological target: NHERF4_2, Q86UT5
PDZD7_3, Q9H5P4 = biological target: T10, PDZD7_3, Q9H5P4
SCRIB_1, Q14160 = biological target: SCRIB_1, Q14160
SIPA1L2, Q9P2F8 = biological target: T11, SIPA1L2, Q9P2F8
TIAM2, Q8IVF5 = biological target: T12, TIAM2, Q8IVF5
TJP3_3, O95049 = biological target: T13, TJP3_3, O95049

Inadl_3, Q8NI35, sequence (Q8NI35 359-469): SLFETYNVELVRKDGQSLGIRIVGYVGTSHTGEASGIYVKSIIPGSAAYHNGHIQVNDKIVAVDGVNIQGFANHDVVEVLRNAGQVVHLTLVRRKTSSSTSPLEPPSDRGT
NHERF2_2, Q15599, sequence (Q15599 142-238): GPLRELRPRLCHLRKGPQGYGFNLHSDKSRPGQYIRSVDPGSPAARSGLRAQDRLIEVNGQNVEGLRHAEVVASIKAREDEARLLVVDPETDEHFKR
SCRIB_1, Q14160, sequence (Q14160 718-814): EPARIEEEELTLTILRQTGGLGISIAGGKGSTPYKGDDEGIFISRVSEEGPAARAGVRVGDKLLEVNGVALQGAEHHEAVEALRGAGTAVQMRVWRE
GIPC2, Q8TF65, sequence (Q8TF65 112-203): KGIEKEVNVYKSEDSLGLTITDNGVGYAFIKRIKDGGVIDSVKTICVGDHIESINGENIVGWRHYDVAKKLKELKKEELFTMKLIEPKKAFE
NHERF4_2, Q86UT5, sequence (Q86UT5 220-308): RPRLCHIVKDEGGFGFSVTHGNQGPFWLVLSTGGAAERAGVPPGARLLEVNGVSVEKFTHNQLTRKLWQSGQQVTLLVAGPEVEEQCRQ
CASK, O14936, sequence (O14936 487-570): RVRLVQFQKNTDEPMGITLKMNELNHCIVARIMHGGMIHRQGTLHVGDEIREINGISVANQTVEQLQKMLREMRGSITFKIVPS
GRIP2_6, Q9C0E4, sequence (Q9C0E4 648-740): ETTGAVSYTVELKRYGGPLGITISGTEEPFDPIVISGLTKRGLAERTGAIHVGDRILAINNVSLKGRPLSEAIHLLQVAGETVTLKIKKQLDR
MAST1, Q9Y2H9, sequence (Q9Y2H9 962-1065): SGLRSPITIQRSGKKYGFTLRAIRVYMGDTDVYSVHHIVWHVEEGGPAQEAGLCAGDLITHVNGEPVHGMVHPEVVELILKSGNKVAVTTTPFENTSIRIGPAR
MAGI2_6, Q86UL8, sequence (Q86UL8 1141-1229): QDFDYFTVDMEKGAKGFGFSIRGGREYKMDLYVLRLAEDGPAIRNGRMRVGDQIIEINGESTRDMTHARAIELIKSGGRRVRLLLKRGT

Binder | pKd (APBA1_2, Q02410) | pKd (APBA2_1, Q99767) | pKd (CASK, O14936) | pKd (DFNB31_1, Q9P202) | pKd (DFNB31_2, Q9P202) | pKd (DLG1_1, Q12959) | pKd (DLG1_2, Q12959) | pKd (DLG1_3, Q12959) | pKd (GIPC2, Q8TF65) | pKd (GRIP1_5, Q9Y3R0) | pKd (GRIP2_6, Q9C0E4) | pKd (HTRA4, P83105) | pKd (Inadl_3, Q8NI35) | pKd (LNX2_3, Q8N448) | pKd (LRRC7, Q96NW7) | pKd (MAGI2_6, Q86UL8) | pKd (MAST1, Q9Y2H9) | pKd (NHERF2_2, Q15599) | pKd (NHERF3_1, Q5T2W1) | pKd (NHERF4_2, Q86UT5) | also measured
B1 | 3.8 | below the threshold | below the threshold | 4 | below the threshold | 3.74 | 4.3 | 3.65 | 3.87 | below the threshold | below the threshold | below the threshold | below the threshold | 3.62 | below the threshold | 4.27 | 4.86 | 3.88 | 3.56 | below the threshold | pKd (PDZD7_3, Q9H5P4): 3.9; pKd (SCRIB_1, Q14160): 4.15; pKd (SIPA1L2, Q9P2F8): below the threshold; pKd (TIAM2, Q8IVF5): below the threshold; pKd (TJP3_3, O95049): below the threshold
B2 | below the threshold | below the threshold | below the threshold | 4.02 | below the threshold | below the threshold | 3.88 | below the threshold | 3.49 | below the threshold | below the threshold | below the threshold | below the threshold | below the threshold | below the threshold | 3.51 | 4.97 | 4.83 | 5.27 | below the threshold | pKd (PDZD7_3, Q9H5P4): 4.66; pKd (SCRIB_1, Q14160): 4.46; pKd (SIPA1L2, Q9P2F8): below the threshold; pKd (TIAM2, Q8IVF5): below the threshold; pKd (TJP3_3, O95049): below the threshold
B3 | 3.63 | below the threshold | below the threshold | 3.94 | 3.75 | 3.48 | 4.01 | 3.76 | 3.52 | below the threshold | below the threshold | below the threshold | below the threshold | below the threshold | below the threshold | 3.53 | below the threshold | 3.8 | 4.36 | below the threshold | pKd (PDZD7_3, Q9H5P4): 3.82; pKd (SCRIB_1, Q14160): below the threshold; pKd (SIPA1L2, Q9P2F8): below the threshold; pKd (TIAM2, Q8IVF5): below the threshold; pKd (TJP3_3, O95049): below the threshold
B4 | 4.35 | below the threshold | below the threshold | below the threshold | below the threshold | below the threshold | below the threshold | below the threshold | below the threshold | below the threshold | below the threshold | below the threshold | below the threshold | below the threshold | below the threshold | below the threshold | below the threshold | below the threshold | 4.46 | below the threshold | pKd (PDZD7_3, Q9H5P4): below the threshold; pKd (SCRIB_1, Q14160): below the threshold; pKd (SIPA1L2, Q9P2F8): below the threshold; pKd (TIAM2, Q8IVF5): below the threshold; pKd (TJP3_3, O95049): 3.65
